# Measurements taken from patent US20050064518A1 (PURDUE PHARMA L P, published 2005).
# T1: O772P 3-repeat TM on transfected NIH/3T3 cells (human)
# T1 construct: also called NIH/3T3 O772P 3-repeat
# T1 chain: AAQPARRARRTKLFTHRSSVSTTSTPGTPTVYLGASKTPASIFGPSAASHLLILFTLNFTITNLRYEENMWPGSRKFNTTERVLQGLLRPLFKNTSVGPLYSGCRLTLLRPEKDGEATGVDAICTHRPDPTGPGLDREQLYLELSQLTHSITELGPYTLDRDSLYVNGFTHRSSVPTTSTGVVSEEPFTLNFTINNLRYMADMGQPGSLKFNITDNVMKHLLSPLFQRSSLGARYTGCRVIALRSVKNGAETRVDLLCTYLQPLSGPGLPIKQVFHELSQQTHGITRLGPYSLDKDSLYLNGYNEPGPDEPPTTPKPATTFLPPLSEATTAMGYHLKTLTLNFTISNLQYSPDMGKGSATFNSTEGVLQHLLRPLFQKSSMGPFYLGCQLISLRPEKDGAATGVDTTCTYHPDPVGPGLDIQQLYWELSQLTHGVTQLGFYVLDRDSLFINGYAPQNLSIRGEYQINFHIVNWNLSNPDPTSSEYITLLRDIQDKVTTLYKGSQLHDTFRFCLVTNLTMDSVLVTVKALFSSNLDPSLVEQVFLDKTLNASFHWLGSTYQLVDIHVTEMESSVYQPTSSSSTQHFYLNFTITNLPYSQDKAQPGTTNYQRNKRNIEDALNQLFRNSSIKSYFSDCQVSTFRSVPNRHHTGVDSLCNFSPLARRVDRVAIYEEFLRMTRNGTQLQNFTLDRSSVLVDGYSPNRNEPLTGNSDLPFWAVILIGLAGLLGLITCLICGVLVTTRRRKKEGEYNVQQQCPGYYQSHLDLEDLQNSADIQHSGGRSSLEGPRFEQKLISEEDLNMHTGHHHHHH
# B1: monoclonal antibody 725.1 (antibody, V domains shown)
# VH: QIQLVQSGPELKKPGETVKISCKASGYSFTNYGMNWVKQAPGKGLKWMGWINAYIGEPTYADDFKGRFAFSLEASTHTAYLQINSLKSEDTATYFCASGGNSLDFWGQGTTLTVSS
# VL: QIILSQSPAILSASPGEKVTMTCRASSSVSSIHWYQQKPESSPKPWIYATSNLASGVPVRFSGSGSGTSYTLTISRMEAADAATYYCQQWSIDPATFGGGTKLEI
# notes: Murine hybridoma antibody; also called hybridoma 725.1 (ATCC PTA-5124)
# B2: monoclonal antibody 776.1 (antibody, V domains shown)
# VH: EVQLQQSGPELVKPGASVKISCKASGYTFTDYNIHWVKQSHGKILEWIGYIYPYNGVSDYNQNFKSKATLIVDNSSNTAYMELRSLTSEDSAVYYCARWDFGSGYYFDYWGQGTTLTVSS
# VL: QIVLSQSPAILFASPGETVTMTCRASSSVIYMCWNQQKPGSSPKPWIYGTSTLASGVPTRFSGSGSGTSYSLTISRVEAEDAATYYCQQWSSNPFTFGSGTKLEI
# B3: OC125 (antibody)
# chain 1: QVQLQESGPELVKPGASVKISCKASGYTFTDYNMHWVKQSHGKSLEWIGYIYPYNGDTGYNQKFRNKASLTVDTSSSTAYMELRSLTSEDSAVYYWARSGGFWYFDVWGQGGTTVTVSS
# chain 2: DIQMTQSPAILSASPGEKVTMTCRATPSVSYMHWYQQKPGSSPKPLIYTTSNLASGVPARFSGGGSGTSYSLTVSRVEVEDAATYYCQQWSRSPPTFGAGTKLEIK
# B4: monoclonal antibody 16H9 (antibody, V domains shown)
# VH: EVQLQQSGAELVKPGASVKLSCTASGFNIKDTYMHWVKQRPEQGLEWIGRIDPANGNTKYDPKFQGKATITADTSSNTAYVQLSSLTSEDTAVYYCASSDIYYGNPGGFAYWGQGTLVTVSA
# VL: QIVLTQSPAIMSASLGERVTMTCTASSSVSSSYLHWYQQKPGSSPKLWIYSTSNLASGVPARFSGSGSGTSYSLTISSMEAEDAATYYCHQYHRSPFTFGSGTKLEI
# notes: Murine hybridoma antibody; also called hybridoma 16H9 (ATCC PTA-5108)
# B5: O772P 3-repeat recombinant protein (other)
# chain: AAQPARRARRTKLFTHRSSVSTTSTPGTPTVYLGASKTPASIFGPSAASHLLILFTLNFTITNLRYEENMWPGSRKFNTTERVLQGLLRPLFKNTSVGPLYSGCRLTLLRPEKDGEATGVDAICTHRPDPTGPGLDREQLYLELSQLTHSITELGPYTLDRDSLYVNGFTHRSSVPTTSTGVVSEEPFTLNFTINNLRYMADMGQPGSLKFNITDNVMKHLLSPLFQRSSLGARYTGCRVIALRSVKNGAETRVDLLCTYLQPLSGPGLPIKQVFHELSQQTHGITRLGPYSLDKDSLYLNGYNEPGPDEPPTTPKPATTFLPPLSEATTAMGYHLKTLTLNFTISNLQYSPDMGKGSATFNSTEGVLQHLLRPLFQKSSMGPFYLGCQLISLRPEKDGAATGVDTTCTYHPDPVGPGLDIQQLYWELSQLTHGVTQLGFYVLDRDSLFINGYAPQNLSIRGEYQINFHIVNWNLSNPDPTSSEYITLLRDIQDKVTTLYKGSQLHDTFRFCLVTNLTMDSVLVTVKALFSSNLDPSLVEQVFLDKTLNASFHWLGSTYQLVDIHVTEMESSVYQPTSSSSTQHFYLNFTITNLPYSQDKAQPGTTNYQRNKRNIEDALNQLFRNSSIKSYFSDCQVSTFRSVPNRHHTGVDSLCNFSPLARRVDRVAIYEEFLRMTRNGTQLQNFTLDRSSVLVDGYSPNRNEPLTGNSADIQHSGGRSSLEGPRFEQKLISEEDLNMHTGHHHHHH
# notes: Repeats are residues 14-452 of the entry
# How the values were obtained:
# [1] = biological target: B5; assay: BIAcore SPR, O772P 3-repeat immobilized, mAb injected
# Procedure: A […] BIAcore biosensor chip was docked into the BIAcore X instrument and activated with 55 μl of 1:1 NHS/EDC at room temperature. O772P 3-repeat region protein and BSA at 10 μg/ml in 0.05 M acetate buffer, pH 4.5, were immobilized onto the flow cell (FC) 1 and FC2 of the activated chip, respectively, at a flow rate of 5 μl/min to achieve a resonance response of 1000-2000 RU. The chip was then blocked by injection of 55 μl of ethanolamine-HCl, pH 8.5, and followed with washing 5 times with 50 mM NaOH-1 M NaCl. To measure the binding of anti-0722P mAbs to the O772P 3-repeat region immobilized to the chip, 30 μl of anti-0722P mAbs at varying concentrations in BIAcore running buffer (HBS-EP, Cat. #1001-080, BIAcore, Piscataway, N.J.) were injected over the sensor surface at a flow rate of 5 μl/min. Following completion of the injection phase, dissociation was monitored in BIAcore running buffer at the same flow rate for 360 seconds. The surface was regenerated between injections using 30 μl of 50 mM NaOH-1 M NaCl. Individual sensorgrams were analyzed using BIAevaluation.
# [2] = biological target: T2, CA 125/O772P on OVCAR-3 cells (human, UniProt Q8WXI7 1-14507); assay: flow cytometry, OVCAR-3 cells; Ab 2 µg/ml
# T2 construct: whole, on cells
# [3] = biological target: B5; assay: ELISA competition, plate-bound O772P 3-repeat; competitor shed CA 125/O772P
# Procedure: (§1) On the next day, the plates were washed with 200 μl 1×PBST (1× phosphate-buffered saline (PBS), 0.05% Tween 20) three times and blocked with 100 μl of 1×PBST containing 1% bovine serum albumin (BSA) for 2 hours at 37° C. […] After 1 hour incubation at 37° C., the plates were then washed with 1×PBST three times. For signal detection, 100 μl of HRP-conjugated sheep anti-mouse IgG (1:2000 dilution into 1×PBST+1% BSA, Amersham Biosciences) was added to each well and incubated for 1 hour at 37° C. The plates were washed again with 1×PBST three times. Finally, 100 μl¹ of a mixture of TMB substrate and H₂O₂ (1:1 ratio, KPL) was added into each well and the absorbance was measured at 405 nm with a plate reader (Molecular Devices Corp., Sunnyvale, Calif.). The assay was done in triplicate for each selected antibody and average values were calculated and presented. The percent inhibition compared to no competition was calculated for individual antibodies based on average values. Controls for blank and individual reagents were also included in each experiment.
# [4] = biological target: B5; assay: ELISA competition, plate-bound O772P 3-repeat; no competitor
# Procedure: as §1
# [5] = biological target: B5; assay: ELISA, plate-bound O772P 3-repeat
# Procedure: On the next day, the plates were washed with 200 μl 1×PBST (1× phosphate-buffered saline (PBS), 0.05% Tween 20) three times and blocked with 100 μl of 1×PBST containing 1% bovine serum albumin (BSA) for 2 hours at 37° C. […] After 1 hour incubation at 37° C., the plates were then washed with 1×PBST three times. For signal detection, 100 μl of HRP (horseradish peroxidase)-conjugated sheep anti-mouse IgG (1:2000 dilution into 1×PBST+1% BSA; Amersham Biosciences) was added to each well and incubated for 1 hour at 37° C. The plates were again washed three times with 1×PBST. Finally, 100 μl¹ of a mixture of TMB (3,3′, 5,5′-tetramethylbenzidine) substrate and H₂O₂ (1:1 ratio, KPL Kirkguard Perry Laboratories) was added into each well and after a 5 minute incubation, the absorbance was measured at 405 nm with a plate reader (Molecular Devices Corp., Sunnyvale, Calif.). The assay was done in triplicate for each selected O772P hybridoma-produced antibody and data was collected and analyzed as a kinetic assay, measured over a 5 minute time period. Average values were calculated and presented. Controls for blank and individual reagents were also included in each experiment.
# [6] = biological target: B5; assay: ELISA competition, plate-bound O772P 3-repeat; competitor soluble O772P 3-repeat
# Procedure: as §1
# [7] = biological target: T1, O772P 3-repeat TM on transfected …; assay: flow cytometry, NIH/3T3 cells expressing O772P 3-repeat TM; Ab 2 µg/ml
# [8] = biological target: B2; assay: ELISA competition: soluble O772P 3-repeat at 10x w/w excess against antibody binding to plate-bound O772P 3-repeat
# Procedure: as §1
# [9] = biological target: T3, monoclonal antibody 501.1; assay: as above
# T3 construct: Murine hybridoma antibody
# Procedure: as §1
# OC125 = biological target: B3; assay: as above
# Procedure: as §1
# [10] = biological target: T4, monoclonal antibody 368.1; assay: as above
# T4 construct: Murine hybridoma antibody
# Procedure: as §1
# [11] = biological target: T5, monoclonal antibody 117.1; assay: as above
# T5 construct: Murine hybridoma antibody
# Procedure: as §1
# T4 sequence (VH, as listed by the source, chain 1 of 2): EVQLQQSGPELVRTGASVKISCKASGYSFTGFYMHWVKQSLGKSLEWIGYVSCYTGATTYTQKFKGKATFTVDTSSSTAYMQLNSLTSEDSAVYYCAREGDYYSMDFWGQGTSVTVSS
# T4 sequence (VL, as listed by the source, chain 2 of 2): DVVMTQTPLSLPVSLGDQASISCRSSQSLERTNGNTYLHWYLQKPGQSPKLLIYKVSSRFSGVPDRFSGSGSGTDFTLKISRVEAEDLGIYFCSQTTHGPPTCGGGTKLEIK
# T5 sequence (VH, as listed by the source, chain 1 of 2): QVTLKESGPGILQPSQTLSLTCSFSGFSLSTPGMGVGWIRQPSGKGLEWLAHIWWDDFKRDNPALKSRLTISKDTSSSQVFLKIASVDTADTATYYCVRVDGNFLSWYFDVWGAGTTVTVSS
# T5 sequence (VL, as listed by the source, chain 2 of 2): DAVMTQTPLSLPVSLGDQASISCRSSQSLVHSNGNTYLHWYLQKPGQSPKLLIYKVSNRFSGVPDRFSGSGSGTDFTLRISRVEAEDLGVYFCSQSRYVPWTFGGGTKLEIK
# T3 sequence (VH, as listed by the source, chain 1 of 2): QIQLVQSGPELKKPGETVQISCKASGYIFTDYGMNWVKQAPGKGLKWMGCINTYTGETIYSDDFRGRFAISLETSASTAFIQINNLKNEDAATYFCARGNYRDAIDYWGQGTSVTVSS
# T3 sequence (VL, as listed by the source, chain 2 of 2): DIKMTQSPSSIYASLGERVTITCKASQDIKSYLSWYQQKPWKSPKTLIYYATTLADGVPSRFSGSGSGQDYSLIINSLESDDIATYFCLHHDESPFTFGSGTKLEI
Kd [1] [nM],absorbance w/shed CA 125/O772P competitor (25-fold w/w excess) [3] [OD],absorbance [4] [OD],absorbance (OD) [5] [OD],absorbance (OD)/µg Ab [5] [OD/µg Ab],absorbance w/O772P 3-repeat competitor (10 x w/w excess) [6] [OD],Binder,also measured
2.6,,,,,,B1,
0.4,0.977,1.18,1.18,29,0.077,B2,% positive cells [2]: 94%; % positive cells [7]: 86%
4,0.074,0.73,0.73,18,0.047,B3,
3.9,,,,,,B4,
,,,,,,B5,percent inhibition of binding [8]: 96%; percent inhibition of binding [9]: 96%; percent inhibition of binding (OC125): 99%; percent inhibition of binding [10]: 30%; percent inhibition of binding [11]: 94%
